The record followed here is US20190359687A1 (Bayer, published 2019).

Changes are numbered by the printed parent chain.

B1: 7G4 scFv-Fc (Fc fusion)
scFv: QVQLKESGPGLVAPSQSLSITCTVSGFSLTRFGISWVRQPPGKGLEWMGVIWGDGSTDYHSALISRLSITKDNSKSQVFFRLNSLQSDDSATYYCARSFGMDYWGQGTSVTVSSGGGGSGGGGSGGGGSNIMMTQSPSSLAVSAGEKVTMSCKSSQSILNSSNQKNYLAWYQQKPGQSPKLLIYWASTRESGVPDRFTGSGSGTDFTLTISSVQAEDLAVYYCHQYFSSRTFGGGTKLEIKGGGGAGGGGCKPCICTVPEVSSVFIFPPKPKDVLTITLTPKVTCVVVDISKDDPEVQFSWFVDDVEVHTAQTQPREEQFNSTFRSVSELPIMHQDWLNGKEFKCRVNSAAFPAPIEKTISKTKGRPKAPQVYTIPPPKEQMAKDKVSLTCMITDFFPEDITVEWQWNGQPAENYKNTQPIMDTDGSYFVYSKLNVQKSNWEAGNTFTCSVLHEGLHNHHTEKSLSHSPGK
notes: as m18
B2: Hu6C12-1 (antibody, V domains shown)
VH: EVQLVQSGAEVKKPGASVKVSCKASGYTFTTYTIHWVRQAPGQGLEWMGYINPSSDYTRYNPKFKDRVTMTTDTSTSTAYMELRSLRSDDTAVYYCQRGTRDYWGQGTTVTVSS
VL: DIQLTQSPSFLSASVGDRVTITCSAASSVSYIYWYQQKPGKAPKLLIYSTSTLPSGVPSRFSGSGSGTEFTLTISSLQPEDFATYYCHQRNSFPFTFGQGTKLEIK
notes: IgG format; VH.1a + Vk.1
B3: Hu6C12-10 (antibody, V domains shown)
VH: B2 VH
VL: B2 VL with F70Y
notes: IgG format; VH.1a + Vk.1a
B4: Hu6C12-9 (antibody, V domains shown)
VH: B2 VH with Q97A
VL: B2 VL with F70Y
notes: IgG format; VH.1 + Vk.1a
B5: Hu6C12-4 (antibody, V domains shown)
VH: B2 VH with M70L
VL: B2 VL
notes: IgG format; VH.1d + Vk.1
B6: Hu6C12-13 (antibody, V domains shown)
VH: B2 VH with M70L
VL: B2 VL with F70Y
notes: IgG format; VH.1d + Vk.1a
B7: Hu6C12-17 (antibody, V domains shown)
VH: B2 VH with Q97A
VL: B2 VL with Y35F, F70Y
notes: IgG format; VH.1 + Vk.1b
B8: Hu6C12-18 (antibody, V domains shown)
VH: B2 VH
VL: B2 VL with Y35F, F70Y
notes: IgG format; VH.1a + Vk.1b

The target of the first experiment is T1, Cynomolgus monkey glycophorin A on Cynomolgus monkey red blood cells (Cynomolgus monkey).
T1 construct: whole, on cells; also called Cyno RBC; Cyno GPA
The experiment can be described thus: FACS, Cyno #2 RBC. On the technique in general: A flow cytometer gives signals particle by particle.
B1 registered an FACS signal of 1 Flourescent units.

The target in another experiment is T2, Rhesus monkey glycophorin A on Rhesus monkey red blood cells (Rhesus monkey, UniProt A0A1D5Q349 20-150).
T2 construct: whole, on cells; also called Rhesus RBC; monkey GPA
T2 sequence: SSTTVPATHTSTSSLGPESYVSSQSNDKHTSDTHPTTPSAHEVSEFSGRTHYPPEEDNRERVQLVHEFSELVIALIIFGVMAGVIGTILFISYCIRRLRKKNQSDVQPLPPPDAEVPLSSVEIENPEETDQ
The experiment can be described thus: FACS, RBC Rh01.
Experimental: (§1) The binding of the humanized variants to intact red blood cells (RBC) from humans (Hu01 to 03; 3 individuals), Rhesus monkey (Rh01 to 03; 3 individuals) and Cynomolgus monkey (Cy01 to 02; 2 individuals) was measured by fluorescence activated cell sorting (FACS).
Regarding B2, the fluorescence intensity came out at 1190.
Still for that read-out and setting: under B3 stands 1410; under B4, 1060; under B5, 1070.
The same measure, in the same setting: under B6 stands 1370.

For the next experiment, the target named is T2, Rhesus monkey glycophorin A on Rhesus …. The experiment is described as follows: FACS, RBC Rh02.
B2 gave a fluorescence intensity of 1120.
In turn, B3 came in with a fluorescence intensity of 1310.
Same read-out and setting: under B4 stands 1060.
On the same count and under the same terms, the figure for B5 is 1320.
On the same count and under the same terms, under B6 stands 1280.

The next experiment deals with T1, Cynomolgus monkey glycophorin A on …. The experiment can be described thus: FACS, RBC Cy01.
Experimental: as §1
B2: the fluorescence intensity came to 742.
B3 yielded a fluorescence intensity of 872.
The same measure, in the same setting: under B4 stands 680; under B5, 884; under B7, 104.
The same measure, in the same setting: under B8 stands 741; under B6, 824.

The next experiment shares this target. The experiment can be described thus: FACS, RBC Cy02.
Experimental: as §1
Regarding B2, the fluorescence intensity worked out at 801.
The same measure, in the same setting: the figure for B3 is 973; for B4 it is 756; for B5 it is 989.
The same measure, in the same setting: the figure for B7 is 127; for B8 it is 876.
Still for that read-out and setting: the figure for B6 is 937.

For the next experiment the target is unchanged. The experiment is described as follows: FACS, Cyno #3 RBC.
In the case of B1, the FACS signal is 1 Flourescent units.

The target in another experiment is T3, human glycophorin A in the red blood cell membrane (human, UniProt P02724 20-150).
T3 construct: whole, on cells; used for intact RBC, isolated RBC membranes and transfected cells; the assay field tells which; also called GPA; hGPA
T3 sequence (looked up): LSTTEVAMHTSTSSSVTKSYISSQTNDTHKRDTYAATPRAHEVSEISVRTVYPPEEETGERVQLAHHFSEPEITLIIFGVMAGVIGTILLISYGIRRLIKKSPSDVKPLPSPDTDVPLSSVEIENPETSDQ
The experiment can be described thus: FACS, IgG.
Experimental: as §1
As for B2, the binding result was “no binding”.
The same measure, in the same setting: the entry for B3 is “no binding”.
Still for that read-out and setting: the entry for B4 is “no binding”; for B5 it is “no binding”; for B7 it is “no binding”.
Still for that read-out and setting: under B8 stands “no binding”; under B6, “no binding”.

For a further experiment, the target named is T1, Cynomolgus monkey glycophorin A on …. The experiment can be described thus: FACS, Cyno #1 RBC.
Turning to B1, the FACS signal was found to be 1 Flourescent units.

For a further experiment, the target named is T3, human glycophorin A in the red blood …. The experiment can be described thus: FACS, RBC Hu01.
Experimental: as §1
B2 yielded a fluorescence intensity of 3.
The same measure, in the same setting: under B3 stands 3; under B4, 3; under B5, 3.
Same read-out and setting: under B7 stands 3; under B8, 3; under B6, 3.

In another experiment the target is T2, Rhesus monkey glycophorin A on Rhesus …. The experiment can be described thus: FACS, Rhesus RBC.
B1 showed an FACS signal of 1 Flourescent units.

For another experiment, the target named is T3, human glycophorin A in the red blood …. The experiment is described as follows: FACS, RBC Hu02.
Experimental: as §1
On to B2, for which the fluorescence intensity is 3.
Turning to B3, the fluorescence intensity is 3.
On the same count and under the same terms, the figure for B4 is 3.
On the same count and under the same terms, under B5 stands 3.
Regarding B7, the fluorescence intensity came out at 3.
On the same count and under the same terms, under B8 stands 3; under B6, 3.

The next experiment has the same target. The experiment can be described thus: FACS, RBC Hu03.
Experimental: as §1
In turn, B2 returned a fluorescence intensity of 2.
On the same count and under the same terms, under B3 stands 2; under B4, 2.
The same measure, in the same setting: under B5 stands 2; under B7, 2.
The same measure, in the same setting: the figure for B8 is 2.
B6 had a fluorescence intensity of 2.

A further experiment has as its target T4, dog red blood cells (dog).
T4 construct: also called dog RBC
The experiment is described as follows: FACS, Dog RBC.
Consider B1, for which the FACS signal is 1 Flourescent units.

For a further experiment, the target named is T3, human glycophorin A in the red blood …. The experiment can be described thus: FACS, Human RBC.
B1 returned an FACS signal of 1410 Flourescent units.

Another experiment concerns the target T2, Rhesus monkey glycophorin A on Rhesus …. The experiment can be described thus: FACS, RBC Rh03.
Experimental: as §1
Take B2: the fluorescence intensity was 1140.
Molecule B3 had a fluorescence intensity of 1310.
Still for that read-out and setting: the figure for B4 is 1050; for B5 it is 1340; for B6 it is 1270.
